{
  "source": "paper PMC13198613",
  "target": "N1-MPP (recombinant neuraminidase: N1 globular head domain from A/Michigan/45/2015 (H1N1) fused to the measles virus phosphoprotein tetramerization domain, with hexahistidine tag) (measles virus | influenza A virus A/Michigan/45/2015 (H1N1))",
  "assay": "SEC; […], pH 7.5, 0.4 mL/min, room temperature; […]",
  "data": [
    {"substance": "N1-MPP (recombinant neuraminidase: N1 globular head domain from A/Michigan/45/2015 (H1N1) fused to the measles virus phosphoprotein tetramerization domain, with hexahistidine tag) (enzyme)", "values": [
      {"measurement": "stoichiometry N", "value": 4}
    ]}
  ]
}
